The record followed here is the domain aggregation screens of Martell et al. (2025).

The nature of this data set: soluble fraction after stress (log2 fold change); higher = more stays soluble; pooled small domains, quantitative proteomics. Particulars: stress: pH 4. In a few lines: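 With high-throughput quantitative proteomics, pooled custom libraries of small protein domains were measured after pH 4 stress. Each domain's soluble amount after the stress gives a fold change taken as aggregation propensity. Higher log2 values mean more of the domain stayed soluble.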
For the sequence “HMSQQMSYSDFVKAVSARQIREAQIQGDKIYATDSTGNRLTIIRLDNDQRLVDDMINNDVNIIGLEE”, the “soluble fraction (log2)” value was -0.534. As to “HMSQSDLASAIGARVTIRLREASGGFRDIVGVLQRFGSGYGELINSKGEALTFSESEIAIWREVKA”, the “soluble fraction (log2)” value turned out to be 0.361. With “HMSQTELIIVEEEMDGERLDAFLAEQVEQLSRSAVKNLINEGQVLVNGAKQKASYHVREGDEISIEIPEPQ”, the “soluble fraction (log2)” value was -0.455. As to “HMSQTPDLQQERANLGDNADARIEAVDLWANKFFPEEHADAILQIGQTAKGIEALEFIMSKV”, the “soluble fraction (log2)” value was -0.345. As to “HMSQVLVRINQDLNIRSGPGAQYDIIAVYRSGAIASVIGTYNNWYKVNFELDSKSYTGWINGTFTSR”, the “soluble fraction (log2)” value was -0.245. On to “HMSQYELEDVEKQRLKFKNGDEKALWLLSDIYKDNSQSYEVRLAALRALSESRHPLIIFDIQSSVK”, for which the “soluble fraction (log2)” value is -0.898.

For the sequence “HMSRAAQRLFMSQPPLSRHIRQLEDRLGVTLFVRHTRGLTLTEDGQRVLEMVRPLLDLQDKTYAALSQLT”, the “soluble fraction (log2)” value was no less than 0.43. As for “HMSREMIKSELESISGLGKSGIEKLYTHFINIENIKSASLENIRNIPGISYKVADNIYKHFH”, the figure is 0.385. For the sequence “HMSRLGINTTIEDIKMVGKIIMPLLKQGQSVYQILASHPEIPYSEKTLYSYIEDNIFKDAGIDISVFDL”, the “soluble fraction (log2)” value is -0.491. Take “HMSRLLERARDLMAKPGAWLSAEGGAYALRLSPDRRSRISLTLTETEFRALIDQPGLRVRPGGGWSGRA”: the “soluble fraction (log2)” value was -0.484.

In the case of “HMSRMGDSIKSLRSRNNMSQDALAEKLNVTRQAISNWENSKTQPDADTLKNLGIIFNVTVDEIINNDF”, the “soluble fraction (log2)” value is -0.587. For “HMSRQREWIYDYIQSHPDRHMSVEEIYEGLKAENREVSVATVYRNLKILQDENRIASLMLESGKQVFDK”, the “soluble fraction (log2)” value was -0.0969.

Consider “HMSRREEALIALAQRVARQVARTKQPVTLEPMPANERRVIHVALRDNPDVETRSSGEGDQRRVTVYPRQ”, for which the “soluble fraction (log2)” value came to 0.202. Regarding “HMSRRIEIELTSSRPDGSWTWRAAGAREPKGVLDGTLLSQGSKPGDVVKAEAEFDIDGITIVSITQ”, the “soluble fraction (log2)” value amounted to 0.0267. As for “HMSRSKLNRLDKIKKMLIAQTGISIKEFSASLNVSEITIRRDLNLLEEQGFIRLVNGVAIYRM”, the “soluble fraction (log2)” value was -0.315. In the case of “HMSRSLEIDVLVKALLEQDRRKFMLVTDGTADVTVRYNNALPSLFREGQGVVAEGLMDNGKFIATNVLAK”, the “soluble fraction (log2)” value was -0.793.

With “HMSRSLLAALEKLRESHTGSLPASVLSSAQRRSLESFAQTTKSVQMRPSGRGVVFAIINPEVVDKHWRELS”, the “soluble fraction (log2)” value came to 0.22. Regarding “HMSRSSQMVNFIRLLSQEKKVSVNSIFSSSVQLSDGIIVKINDFYYRVNLSLDQKTYSLVEVS”, the “soluble fraction (log2)” value came out at 0.12. Regarding “HMSRVKQERLNRFVEAFEAYFRSVHPGEIDVEYLKSDEFGDIFESILHRVMHTASEEKMHRFKKILLNEM”, the “soluble fraction (log2)” value is -1.39.

For “HMSSADIPFSRFIDDVEAQRVEKVTIDGVNVTGRYRSDGAAFKTIIPSQYDGLVPILRQNKVDITVKDA”, the “soluble fraction (log2)” value is 0.41. With “HMSSAMDMISRDVRNADSISISTTTYSKKIDLYNFDRNGDIEELHSYSAKNDLGILYNDEPI”, the “soluble fraction (log2)” value was 0.191.

Turning to “HMSSANIKLDPLERQATQQIINNIKRKYPNATIENLQEVANDAIATMRQPEFSNYTVDKFVSYFLSM”, the “soluble fraction (log2)” value was -0.429.

In the case of “HMSSARKVTVRGVRELPGIFMEKAEILDDGVRFFYRGEMEKLIGALQGLPIRDLTITEPDLEEVFLHFY”, the “soluble fraction (log2)” value is -1.43. As to “HMSSASETQYELALQAMRDGDNDAALRSLSTALASGFSDWQRIDEEPLLAALANDVRFQVLRSRWK”, the “soluble fraction (log2)” value is -0.92.

Take “HMSSDLVDYLVKYVAIVDNQEIEIADSKIGTAELGTTVSEVAKTVGNYYPKATVLSVKITGRNQEIVFEY”: the “soluble fraction (log2)” value is -1.8.

Take “HMSSEPYISLPRGAAHDAYPLSTKAVAAQLGMSEVWLANLRSKGKGPRYVRVGTRVFYSPEDVAQWRRAT”: the “soluble fraction (log2)” value is no less than 0.43.

In the case of “HMSSESIIIKKLIEEFIHNENKYSPLSDEKLSYLLKNKGFSVARRTVAKYRDELGILSTRERKIKI”, the “soluble fraction (log2)” value is 0.393.

With “HMSSEYARFFSGNYYEVLGVAKNASYDEIKAAWKKLVKEYHPDLHPQRQEEFTKIIQKINEAYEYFKKMH”, the “soluble fraction (log2)” value is -0.201.

Turning to “HMSSFFLIDVSQVRIGMYIQLDVGWMRHPFPVNSFRITNQEQLDTLRSLNLAQVRWSPAKSDL”, the “soluble fraction (log2)” value was -1.

Consider “HMSSFIEAIKQSGTDSLDVIMKNGRVYRYVGIDADRLGYLLEPHQQKLSLEESIGRFYIDYIKGIYEAIE”, for which the “soluble fraction (log2)” value was -1.05. For the sequence “HMSSGNLESLLNKLHNEDYFVRLDAVKALGALGDPGAIDYLIEMLSENGIMRGWVANSLAALGEAQWKKII”, the “soluble fraction (log2)” value is -1.44. Take “HMSSHSAEAVRHRIKSMIDHEARDGDVLSDDRIVELLNQAGIDIARRTVAKYREALRIPSSVERKRRLKA”: the “soluble fraction (log2)” value came out at 0.0173. In the case of “HMSSKRDQFIVLGQEILEKMFKNEGLEFSEKGLLAVMPNFEAESINDIYAKVGEGLISGWDVMKAVYPAY”, the “soluble fraction (log2)” value is -0.841. In the case of “HMSSKSLAALSPQEYRLLPLVAEGKTNKEIASALALSDKTVKNYLANIFSKLGITRRTQAATLYARAL”, the “soluble fraction (log2)” value was found to be 0.252. In the case of “HMSSKYLKIYNDIVGKIDSGIFEANTKLPSESQLMDEYNVSRYTVRKSLNLLEQNGYIEKSKGKGSFVLDM”, the “soluble fraction (log2)” value is -0.1. As for “HMSSLQFVTLTLMEGHAWVGREIQELLMPPQMRIALIRRGDSQVIPKGSTILESADELILSAIEYQG”, the figure is -2.51. Regarding “HMSSLREQVADALRAHLVSGRMRPGVLYSAPKLAAEFGVSATPVREAMLDLVSEGLVDVVRNKGFRVT”, the “soluble fraction (log2)” value is 0.018. As for “HMSSPPNPQLAKRYISYSVDDIARLFGIHRHTVREWIKRGLPVIDQQRPLLVQGADLAEFLRKRRA”, the figure is 0.162; as for “HMSSPVIQINTRNDGWIIKLLQPAVEKDVLEGYLADVGLKLQSQMMEKILAAPAGTEFHIKRGSNILTE”, -0.133. As for “HMSSQADEEALFKLLAANPYSDEQLEEIRIAIGSGIAYKDIIRIADIGNTAERMKQLRLEFTKDTAN”, the figure is -0.353.

Take “HMSSQGSLEKGYSALLDGRLDDAALAYGAALAANPMERDALLGLAYVAHSKGRREEAQALYRKVLR”: the “soluble fraction (log2)” value was -0.53. As for “HMSSSTFVGRVAVITIGEARQNSPAEARFKDRHGTTHYVMVEPMEDVVFKQGDKVLLVESAGATFKVIEPA”, the figure is -0.00194; as for “HMSSTSISFNDFQKYWLSNDIKSFQLREDKMTVQGSLKNGTAYETVVPSERLFQFIGQHPKD”, -0.127. As for “HMSSVDLLSERERQVLARISRGMSNEEIAAELAITPRTVRNHLANIYGKIDVHSRAEAVVWARERGIT”, the figure is -0.152. As to “HMSSVEQAILETLSKEHSHLTSLQVFEEIRGRLPAVNQSTVYRALERLVEQGVVSVSDMGTHAAVYE”, the “soluble fraction (log2)” value worked out at 0.119.

On to “HMSSVMMPDLTGESAIVAMERLQQLGLLPKVEEVDSYREPGIVLEQLPRAGEKIKRGRIAILKVSS”, for which the “soluble fraction (log2)” value is -0.131.

On to “HMSSVTGMERFLSSGAVKGIGKTMAARIVEHFGTETMTVLESFPERLAEVPGIGAKKAEAIGQSYSEISD”, for which the “soluble fraction (log2)” value was -0.259. For “HMSSVVARRARIATLVVETSVASQEELGRLLADEGITVTQATLSRDLDALGAVKVLSADGGTRYRIPGQ”, the “soluble fraction (log2)” value was -0.45. As to “HMSSVVVARTWTDTTGDFKVEAELLGVEGGLVRLKKEDGTVLSVPIAKLSTADRTFLQENQP”, the “soluble fraction (log2)” value stood at 0.22.

On to “HMSSWEDNFSYWIRNVAETLDKDLLNVANSKLEKIIINAALDQTNGKKNEAAILLGLGRNTLAKKIKELG”, for which the “soluble fraction (log2)” value was -0.929.
